Columns and labels:
[1] = molecular target: SlPYL1 wild type (tomato dimeric abscisic acid receptor PYL1) (tomato (Solanum lycopersicum)); test: SEC; Superdex 30 Increase 3.2/300 column as printed; 50 ul with 60, 6 or 0.6 ug protein (48 to 0.48 uM injected); 30 mM Tris-HCl pH 7.5, 150 mM NaCl, 1 mM DTT; apo form, no ABA; refractive index detection
[2] = molecular target: SlPYL1 E151D (tomato (Solanum lycopersicum)); test: as above

SlPYL1 wild type (tomato dimeric abscisic acid receptor PYL1)
stoichiometry N [1]: 2

SlPYL1 E151D (receptor)
stoichiometry N [2]: 2

From article PMC9207482
